From the nanobody polyreactivity screen of Harvey et al. (2022)

Assay: yeast display, Sf9 membrane polyspecificity reagent, FACS + sequencing; frameworks hold sequencing errors
How it was run: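 Nanobodies came from a synthetic yeast display library in Saccharomyces cerevisiae BJ5465, induced with galactose for 36–48 hours and stained for 1 hour at 4 °C with 10% biotinylated, detergent-solubilized Sf9 membrane reagent. Cells were enriched on streptavidin microbeads and then FACS-sorted, with low and high (top ~1%) gates set on anti-HA fluorescence for expression and streptavidin fluorescence for reagent binding. Each polyreactivity label reflects the gate a clone came from. Genes were amplified by colony PCR, sequenced by MiSeq 2 × 250 and filtered by CDR length.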

| Sequence | polyreactivity (PSR sort gate) |
| --- | --- |
| QVHLVESVGGLVQAGGSLRISCAASGRIFSKYAMGWYRQAPGKDRELVGAITSSTKYADSVKGRFTISRDNAKNTVYLQMHSLKPEDTAVYSCNAEFVWHTYYGADFKMDYWGQGTQVTVSS | high polyreactivity |
| QVQLVESGGGLVQAGGSLRLSCAASGSIFGYYAMGWYRQAPGKERELVASISGSGGTTYFADSVKGRFTISRDNAKNTVYLQMNSLKPEDTAVYYCAARRSIYGYPFVTSRRGYWGQGTQVTVSS | high polyreactivity |
| QVQLVESGGGLVQAGGSLRLSCAASGSIFYVYAMGWYRQAPGKVRELVAAITSSGTTNYADSVKGSFTISRDNAKNTVYLKMNSLKPEDTAVDSCAADPDSGQVPFDYLGQGTQVTVSS | low polyreactivity |
| QVQLVESGGGLVQAGGSLRLSCAASGSTFDYYAMGWYRQAPGKERELVAAISSTDGSTFYADSVKGRFTISRDNAKNTVYLQMNSLKPEDTAVYYCAVVGYYYPWPNGYDYWGQGTQVTVSS | low polyreactivity |
| QVQLVETAGRLVQAGGSLRLSSAASGFTFYIYAMGWSRHAPGKERQLVAAISGGGSTYYADSVKGRFTISRDNAKNTVYLQMNSLKPEVTAVYYCAVFPAAIYHRRGTYDYWGQGTQVTVSS | high polyreactivity |
| QVQLVESGGGLVQAGVSLRLICAASGFIFPTKVMGWYRQAPATEREFVASITWRGGGTFYADSVKGRFTISRDNAKNTVYLQMNRLKPEDTAVYYCAAGRSWSSFWKYDYWGQGTQVTVSS | low polyreactivity |
| QVQLVESGGGLVQAGGSLRLSCAASGRIFTTNTMGWYRQAPGKERELVARITYSGTSTYYADSVKGRFTISRDNAKNTVYLQMNSLKPEDTAVYYCAAKVWWRKYLLQDYYYWGQGTQVTVSS | high polyreactivity |
| QVQLVESGGGLVQAGGSLRLSCAAYGGTFYYYAMGWYRQAPGKEREFVAAITWTGGRTYYADSVKGRFTISRDNAKNTVYLQMNSLKPEDTAVYYCAASDRYGGRDYWGQGTQVTVSS | high polyreactivity |
| QVQLVESGGGLVQAGGSLRLSCAASGGTFRYYAMGWYRQAPGKERELVAAITSGDTTNYADSVKGRFTISRDNAKNTVYLQMNSLKPEDTAVYYCAKELQVRQAGDYWGQGTQVTVSS | low polyreactivity |
| QVQLVESGGGLVQAGGSLRLSCAASGSTFGYYGMGRYRQAPGKERELVASIDSRGDSTYADSVKGRFTISRDNAKNTVYLQMNSLKPEDTSVYYCADDSWYTWFDSWGQGTQVTVSS | low polyreactivity |
| QVQLVESGGGLVQAGGSLRLSCAASGFIVDYYAMGWYREAPGKERELVAAIDDSAGSTYYADSVKGRFTISRDNAKNTVYLQMNSLKPEDTAVYYCAADIYVEYDYWGQGTQVTVSS | low polyreactivity |
| QVQVVESGGGLVQAGGSLRLICAASGSTSWSYAMGWYRQAPGKERELVAAITRTGSTNYADSVKGRFTISRDNAKNTVYLQMNSLKPEDTAVYYCVYATLRYDYWGQGTQVTVSS | low polyreactivity |
| QVQLVESGGGLVQAGGSLRLSCAASGFTFSPYTMGWSRQAPGKERELVATIRYDGTSTYYADSVKGRFTISRDNAKNTVYLQMNSLKREDTAVYYCAAEIWRVYSTFYYWGQGTQVSVSS | low polyreactivity |
| QVQLVESGGGLFQAAGSLRLSCAASGLTFAYNAMGWYRQAPGKERELDAEISKRGGSTFYADSVKGRFTLSHVNAKNTVYLQMNSLKPEDTAVYYCARGSYPYRSFWLTSDDWGQGTQVTVSS | high polyreactivity |
| QVQLVESGGGLVQAGGSLRLSCAASGYIFSDNTMGWYRQAPGKERELVAVITSGTSTSYADSVKGRFTISRDNAKNTVYLQMNSLKPEDTAVYYAARTGQYKTYGEYDYWGQGTQVTVSS | low polyreactivity |
| QVQLVESGGGLVQAGGSLRLSCPASGRTFDYNAMGWYRQAPGKERELVAAITSSGGSTYYADSVKGRFTISRDNAKNTVYLQMNSLKPEDSAVYYCATDGQSPYYIYYWGQGTQVTVSS | low polyreactivity |
| QVQIVESGGGLVQAGGSLRLSCAASGRIFRRYVMGWYRPAPGKERELVAAITKSGTSTYYADSVKGRFTISRDNAKNTVYLQMNSLKPEDTAVYYCAAVPYQSKYPRFGYWGQGTQVTVSS | high polyreactivity |
| QVQLVESGGGLVQAGGSLRLSCAASGFIFDSYVMGWYRQAPGKEREMVAAISSGGASTYYADSVKGRFTISRDNAKNTVYLQMNSLKPEDTAVYYCAAEYLYQPWGVDYDYWGQGSQVTVSS | high polyreactivity |
| QVQLVESGGGLVQAGGSLRLSCAASGRTFGRYPMGCYRQAPGKERELVAAIRYSGSSTYYADSVKGRFTISRDNAKNTVYLQMYSLKPEDTAVYYCAKRYYGKDYWGQGSQVTVSS | high polyreactivity |
| QVQLVDSGGGLDQAGGSLRLSCASSGSSSNTMLWDGKDRRLGKKGSWSSTNYADSVKGRFTISRDNAKNTVYLQMNSLKPEDTAVYYCNAYHDYITEFNYWGQGTQVTVSS | low polyreactivity |
| QVQLVESGGGLVQAGGSLRLSCAASGSIFNYNAMGWYRQAPGKERELVAAISSGGSTNYADSVKGRFTISRDNAKNTVYLQMNSLKPEDTAVYYCAKRGKQYRKMNYWGQGTQVTVSS | high polyreactivity |
| QVQLVESGGGLVQAGGSLRLSCAASGSIFGFYAMGWYRQAPGKERELVASISSSGDSTYYADSVKGRFTISRDNAKNTVYLQINSLKPEDTAVYYCAAVVYDIYGYEFDYWGQGTQVTVSS | low polyreactivity |

| Sequence | polyreactivity (PSR sort gate) |
| --- | --- |
| QVQLVESGGGLLQAGGSLRLSCAASGITFTGYAMGWYRQAPGKERELVAVISETGGSTYADSVKGRFTISRDNAKNTVYLQMNSLKPEDTAVYYCAARLWWPYSTAWAKMDYWGQGTQVTVSS | low polyreactivity |
| QVQRVESGGGLVQAGGSLRLSCAASGSTFRRYTMGWYRQAPGKERELVAAITYRGSSTYYADSVKGRFTISRDNAKNTVYLQMNSLKPEDTAVYYCAADARYTGYYYWGQGTQVTVSS | high polyreactivity |
| QVQLVESGGGLVQAGGSLRLSCAASGLIFQVYTMGWYRQAPGKERELVAAISWDAGSTYYADSVKGRFTISRDNAKNTVYLQMNSLKPEDTAVYYCAAKRKIRGYGPYEYWGQGTQVTVSS | high polyreactivity |
| QVQLVESGGGLVQAGGSLRLSCAASGSIKQNSMGWYRQAPGKERELVAAIDWDGSSTYYADSVKGRFTISRDNAKNTVYLQMNSLKPEDTAVYYCNTDYTGPDGTDEYDYWGQVTQVTVSS | low polyreactivity |
| QDQLGESGGGLVQAGGSLRLSCAASGRTFNGYAMGWYRQAPGKVREFVAAITSNGARTYYADSVKGRFTISRDNAMNSVYLQMNSLKPEDTAVFYCAKRFARRSQRYDYWGQGTQVTVSS | high polyreactivity |
| QLQLVESGGGLVQAGGSLRLSCAASGSTFPWYTMGWYRQAPGKERELVAAITWNGVSTYYADSVKWRITISRDNAKNTVYFQMNSLKPEDTAVYYCATRIKRIGGFPYYYWGQGTQVTVSS | high polyreactivity |
| QVQLVESGVRLVQAVGSHRLSCAASASIIDGNSMGWYRQAPGKERELGAVISSRGTRTYYADSVKGRFTISRDNAKKTVYLQMNILKPEDTAVYYCNTRTSDLNGSGDYWGLGTQVTVSS | high polyreactivity |
| QVQLVESGGGLVQAGGSLRLSCAGSGATYERYAMGWSRPAPGKERALVAASNKRGGNTYYADSVKGRFTISRDNAKKTVYLQMNSLKPEDTAVYYCAADHLDRTEFPYYYWGQGTQVTVSS | high polyreactivity |
| QVQLVESGGGLVQAGGSLRLICAASGSTFGVYAMGWYRQAPGKEREMVAAIRWSSGSTYYADSVKGRFTISRDNAKNTVYLQMNSLKPEDTAVYYCAKTRGIYNIRFGYWGQGTQVTVSS | high polyreactivity |
| QVQLEESGGGLVQAGGSLRLSCAASGSILDLNAMGWSRQATGKERELVAAISYSGDSTYYADSVKGRFTISRDNAKNTVYLQMNSQKPEDTAVYYCAAEVYGAVYDYWGQGTQVTVSS | low polyreactivity |
| QVHLVESGGGLVQAGGSLRLSCAASGSTFAPNAMGWYRQAPGKERELVASIRRGGSTHYADSVKGRFTISRDNAKNSVYLQMNSLKPEDTAVYYCATDQDPCSWYRYDYWGQGTQVTVSS | low polyreactivity |
| QVQLVESGGGLVQAGGSLRLSCAASGFTFYKYAMGWYRQAPGKERELVAAISRRGTSTYYADSVKGRFTISRDNAKNTVYLQMNSLKPEDTAVYYCNRDVSLSAFDYWGQGTQVTVSS | high polyreactivity |
| QVQLVESGGGLVQAGGSLRLSCAASGFIFVYNAMGWYRQATGKERELVAAIDYGGGSTTYADSVKVRFTISRDNAKNTVYLQMNSLKPEDTAVYYCAAYYRYLDDIYEYEYWGQGTQVTVSS | low polyreactivity |
| QVHLVESGGGLVKAGGSLRLSCGASGSTFERYAMGWYRQAPGKERELVAAINWSGGGTYYADSVKGRFTSSRDNAKNTVYLQMNSLNPEDTAVYYCAGDSGTVVFSLWWYEYYYWGQATQVTVSS | low polyreactivity |
| QVQLVESGGGLVQAGGSLRLSCAASGRTFLVNAMGWYRQAPGKEREFVAAITSRSGRTNYADSVKGRFTISRDNAKNTVYLQSNSLKPEDTAVYYCNAEGYTVKYWYSRYDYWGQGTQVTVSS | high polyreactivity |
| QVQLVESGGGLVQAGGSLRLSCAASGGTFRRYTMGWYRPAPGKERELVAVISRSGGSTYYADSVKGRFTISRDIAKNTVYLQMNSLKPEDTAVYYCAVVYYNGYDWGQGTQVTVSS | high polyreactivity |
| QVQLVESGGGLVQAGGSLRLSCAASGSIFWPNAMGWYRQAPGKERELVAAISRGGSTNYADSVKGRFTISRDNAKNTVYLQMNSLKPEDTAVYYCATDAYYYNLLYLFPRYDYWGQGTQVTVSS | low polyreactivity |
| QVQLVESGGGLVQAGGSLRLSCAASGSIFTTNAMGWYRQAPGKERELVSAISSRGGSTYYADSVKGRFTISRDNAKNTVYLQMNSLKPEDTAVYYCAARYRWPIPGTQYEYWGQGTQVTVSS | low polyreactivity |
| QVQLVESGGGLVQAGGSLRLSCAASGRTFVKNAMGWYRLAPGKERELVAAISRRGGSTYYADSVKGRFTISRDNAKNTVYLQMNSRKPEDTAVYYCAAPYTRPTTGYDYWGQGTQVTVSS | high polyreactivity |
| QVQLVESVGGLVQAGGSLRLICAASGRIFVHYAMGWYRQAPGKERELVAAISWNGGRTFYADSVKGRFTISRDNAKNTVYLQMNSLKPEDTAVSYCAARSRYSLDYWGQGTQVTVSS | high polyreactivity |
| QVQLVESGGGLVQAGGSLRLSCAASGSIFGAYAMGWYRQAPGKERELVAAISWRDGSTYYADSVKGRFTISRDNAKNTVYLQMNSLKPEDTAVYYCAAEYVYIFYDSDYWGQGTQVTVSS | high polyreactivity |
